Source: publication PMC10178127, “Immunomodulatory Effects of the Pea Defensin Psd1 in the Caco-2/Immune Cells Co-Culture upon Candida albicans Infection” (International Journal of Molecular Sciences, 2023)

What was measured:
[1] = tested on: Caco-2 polarized monolayer; type: in vitro ADME, human
Experimental: For growing cells, mimicking epithelial barriers in vitro, Caco-2 cells were seeded onto 24-well polycarbonate Millicell cell culture inserts (0.4 μm, 0.6 cm^2 surface area) (Millipore, Burlington, MA, USA), precoated with 0.2% bovine gelatin (Sigma-Aldrich), at a density of 2.5 × 10^5 cells/cm^2. The cells were grown for 21 days in a complete DMEM/F12 (1:1) medium with re-feeding every 2–3 days with a fresh complete medium. The integrity of the Caco-2 cell monolayer was checked by measuring the transepithelial electrical resistance (TEER) using a Millicell-ERS Voltohmmeter (Millipore). Only cell monolayers with TEER > 400 Ωcm^2 (after subtracting TEER in blank inserts without Caco-2 cells) were used in transport across epithelial monolayer and cytokine production experiments.
The recombinant Psd1 was labeled with fluorescein isothiocyanate isomer I (FITC) (Sigma-Aldrich). For this, 0.5 mg of Psd1 was reconstituted in 20 µL of DMSO, then added to 100 µL of the buffer for coupling (0.1 M sodium carbonate, 0.1 M sodium bicarbonate, pH 10.8) and 3.7 mg of FITC in 100 µL of DMSO. The coupling reaction was conducted for 2 h at room temperature in the dark. In order to purify FITC-Psd1, the reaction mixture was loaded onto the PD10 gel-filtration column (GE Healthcare, Chicago, IL, USA) previously equilibrated with transport buffer (Hank’s balanced salt solution, containing 1 mM MgCl2, 1 mM CaCl2, and 10 mM D(+)glucose, pH 7.4).
Transport of FITC-Psd1 across the Caco-2 epithelial barrier in vitro was performed in the transport buffer. Bidirectional “apical-to-basolateral” (A→B) and “basolateral-to-apical” (B→A) transport of FITC-Psd1 in the transport buffer across epithelial barrier was investigated. The “apical-to-basolateral” assay was initiated by adding 0.4 mL of 2 µM FITC-Psd1 to the apical (luminal) side of the monolayer and 0.7 mL of the transport buffer (pH 7.4) to the basolateral side of the monolayer. The “basolateral-to-apical” assay was performed in a similar manner, except that 0.4 mL of the transport buffer (pH 7.4) was added to the apical side and 0.7 mL of 2 µM FITC-Psd1 to the basolateral (serosal) side. All solutions were pre-warmed to 37 °C before taking into the transport experiment. Transport in vitro across Caco-2 barriers was conducted for 90 min in 4 independent inserts for each studied transport variant.
An apparent permeability coefficient (Papp) was calculated for each insert according to the following equation:Papp = (V/(A × Ci)) × ΔC/Δt,(1) where V is the volume of the acceptor chamber, A is the area of the membrane insert, Ci is the initial concentration of Psd1, and ΔC/Δt is the solute flux across the barrier. Uptake ratio:UR = Papp(A→B)/Papp(B→A),(2) and efflux ratio:ER = Papp(B→A)/Papp(A→B),(3) for Psd1 were calculated from averaged apparent permeability coefficients measured in 4 independent inserts. Monolayer integrity was checked by measuring TEER before and after the end of the experiment.

[2] = tested on: human peripheral blood mononuclear cells (PBMCs); test: Resazurin-based cell cytotoxicity assay; details: 24 h
Experimental: The cytotoxic properties of the pea defensin Psd1 were investigated by resazurin-based cell cytotoxicity assay as previously described. In brief, PBMCs were seeded in 96-well plates at 2 × 10^6 cells per well in RPMI-1640 supplemented with 10% FBS and kept in a CO2 incubator for 24 h. After this, serial two-fold dilutions of defensin in a complete culture medium were added to the wells at final concentrations from 0.2 to 50 μM and the plates were incubated for 24 h. Resazurin (Sigma) was added at a final concentration of 70 µM, and the plates were incubated overnight (16–18 h). Fluorescent resorufin was registered using a 535/595 filter at PlateReader AF2200 (Eppendorf). Untreated cells were used as negative controls. Non-ionogenic detergent Triton X-100 and membrane-active peptide melittin from honeybee venom were used as positive controls. The cell viability was calculated according to the following equation: cell viability (%) = (Fsample/Fcontrol) × 100%. Cell lysis was monitored with an Olympus CKX41 microscope.

Substance: Psd1: pea defensin from Pisum sativum (UNIPROT P81929), recombinant peptide overexpressed in Escherichia coli (KTCEHLADTYRGVCFTNASCDDHCKNKAHLISGTCHNWKCFCTQNC; UniProt P81929 1-46, looked up)
- efflux ratio (ER) ([1]; Caco-2): 2.29
- uptake ratio (UR) ([1]; Caco-2): 0.44
- Apparent permeability A→B coefficients (Papp), range of four inserts ([1]; Caco-2, pH 7.4): 2.63–3.71 × 10^−6 cm/s
- Papp A→B ([1]; Caco-2, pH 7.4): 3.04 ± 0.24 × 10^−6 cm/s
- Papp B→A ([1]; Caco-2, pH 7.4): 6.96 ± 0.22 × 10^−6 cm/s
- cytotoxic activity on PBMCs ([2]; 0.2 to 50 μM): no cytotoxic activity
- Cell viability ([2]; PBMCs, 50 μM): 100%
